Assay results taken from article PMC2212946.

Target: Fc fragment of IgE (domains Cε2-4) (human)
Assay: SPR

Fc fragment of IgE (domains Cε2-4) (human), sequence (P01854 whole entry, the tested form may be a part): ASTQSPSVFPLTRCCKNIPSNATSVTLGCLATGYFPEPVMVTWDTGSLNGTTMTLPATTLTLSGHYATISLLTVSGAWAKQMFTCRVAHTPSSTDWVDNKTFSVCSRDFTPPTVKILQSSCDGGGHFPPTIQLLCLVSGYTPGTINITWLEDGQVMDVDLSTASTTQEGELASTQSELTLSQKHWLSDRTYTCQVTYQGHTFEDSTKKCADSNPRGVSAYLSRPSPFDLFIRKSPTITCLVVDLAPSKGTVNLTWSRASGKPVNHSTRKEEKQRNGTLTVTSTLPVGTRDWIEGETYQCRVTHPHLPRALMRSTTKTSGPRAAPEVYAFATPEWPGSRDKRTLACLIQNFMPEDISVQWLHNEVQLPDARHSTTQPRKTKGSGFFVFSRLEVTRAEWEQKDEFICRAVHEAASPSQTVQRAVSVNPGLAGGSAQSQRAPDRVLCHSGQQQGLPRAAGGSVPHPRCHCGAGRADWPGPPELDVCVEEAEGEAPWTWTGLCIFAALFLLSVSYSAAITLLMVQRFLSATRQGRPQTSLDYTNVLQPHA

B1: derCD23, recombinant version of the Der p I fragment of human CD23 (FcεRII), C-type lectin domain (domain or fragment)
chain: SGFVCNTCPEKWINFQRKCYYFGKGTKQWVHARYACDDMEGQLVSIHSPEEQDFLTKHASHTGSWIGLRNLDLKGEFIWVDGSHVDYSNWAPGEPTSRSQGEDCVMMRGSGRWNDAFCDRKLGAWVCDRLATCTPPASEGSAE
- Kd: 1300 nM

B2: exCD23, recombinant soluble CD23 fragment containing the entire extracellular sequence (domain or fragment)
chain: DTTQSLKQLEERAARNVSQVSKNLESHHGDQMAQKSQSTQISQELEELRAEQQRLKSQDLELSWNLNGLQADLSSFKSQELNERNEASDLLERLREEVTKLRMELQVSSGFVCNTCPEKWINFQRKCYYFGKGTKQWVHARYACDDMEGQLVSIHSPEEQDFLTKHASHTGSWIGLRNLDLKGEFIWVDGSHVDYSNWAPGEPTSRSQGEDCVMMRGSGRWNDAFCDRKLGAWVCDRLATCTPPASEGSAESMGPDSRPDPDGRLPTPSAPLHS
- KD, first of two components: 1100 nM
- KD, second of two components: 39 nM
- koff, major component: 0.0005 s⁻¹
- koff, minor component: 0.04 s⁻¹
